Results published in the nanobody polyreactivity screen of Harvey et al. (2022).

test: yeast display, Sf9 membrane polyspecificity reagent, FACS + sequencing; frameworks hold sequencing errors
Outline: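 Polyreactivity labels are assigned by the sorting gate from which each nanobody was recovered. The gates were low and high (top ~1%), set on anti-HA fluorescence for expression and streptavidin fluorescence for reagent binding. Before sorting, galactose-induced (36–48 hours) yeast display cells were stained for 1 hour at 4 °C with 10% biotinylated, detergent-solubilized Sf9 membrane reagent.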

Row | Sequence | polyreactivity (PSR sort gate)
1 | QVQHVESGGGLVQAGGSLRLSCAASGRTFPGNAMGWYRQAPGKERELVAAISSSGGSTHYADSVKGRFTFSRDNAKNTVYLQMNSRKPEDSAVYYCNARSKGYSYRYYYWGQGTQVTVSS | high polyreactivity
2 | QVQHVESGGGLVQAGGSLRLSCAASGRTFTYNAMGWYRQAPGKERELVAAISWNGGRTYYADSVKGRFTISRDNAKNTVYLEMNSLKPEETAVYYCNAVSYNLAAYDYWGQGTQVTVSS | high polyreactivity
3 | QVQHVESGGGLVQAGGSLRLSCAASGSIFASNAMGWYRQPPGKEREFVAAISSSGTRTYSADSVKGRFTISRDNAKNTVYLQLNSLKQEDTAVYYCATRRGYDSVYYFYTLWSYYWGQGTQVTVSS | low polyreactivity
4 | QVQHVESGGGLVQAGGSLRLSCAASGSIFGANAMGWYRQAPGNERQLVAAITSGGSTTYADSVKGRFTISRDNAKNTVYLQMNSLKPDDTAVYYCAADESTPYWPVDNFDYWGQGTQVTVSS | low polyreactivity
5 | QVQHVESGGGLVQAGGSLRLSCAASGSIFGVYDMGWYRQAPGKERELVAAISWRGGSTYYADSVKGRFTISRDNAKNTVYLQMNSVKPEDTAVYYCNALGVAEYDWGQGTQVTVSS | low polyreactivity
6 | QVQHVESGGGLVQAGGSLRLSCAASGSIFHVNAMGWYRQAPGKERELVAAISSSGGRTYYADSVKGRFTISRDNAKNTVYLQMNSLKPEDTAVYYCAAASQVRQPPNGGNGYWGQGTQVTVSS | high polyreactivity
7 | QVQHVESGGGLVQAGGSLRLSCAASGSIFNLYVMGWYRQAPGKERELVATISSGGSTNYADSVKGRFTISRDNAKNTVYLQMNSLKPEDTAVYYCAKPYIVYYSMDYWGQGTQVTVSS | low polyreactivity
8 | QVQHVESGGGLVQAGGSLRLSCAASGSIFRYNARGWYRQAPGKERELVAAISSSGGRTYYADSVKGRFTISRDNAKNTVYLQMNSLKPEDTAVYYCATADTRRFTYGYYYWGQGTQVTVSS | high polyreactivity
9 | QVQHVESGGGLVQAGGSLRLSCAASGSIFSVYAMGWYRPEPGKASQLFAGITRGGSTYADSVKGRFTISRDNAKNTVYLQMNSLKPEDTAVYYCAADALIATPSWGKYNYWVQGTQVTVSS | high polyreactivity
10 | QVQHVESGGGLVQAGGSLRLSCAASGSIFVRNAMGWYRQAPGKEREFVAAISRSGDSTNYADSVKGRFTISRDNAKNTVYLQMNSLKPEETAVYYCAVGYRYLKWVDYWGQGTQVTVSS | high polyreactivity
11 | QVQHVESGGGLVQAGGSLRLSCAASGSIFWVYVMGRYIQAPGQERELVAAITNGGSTDYADSVKGRFTISRDNAKNTVYLQMNSLKPEDTAFYYCAKRSTIWGRILITFDYWGQGTQVTVSS | low polyreactivity
12 | QVQHVESGGGLVQAGGSLRLSCAASGSIIDIYAMGWYRQAPGKERELVASISGGAGSTNYADSVKGRFTISRDNAKNSVYLQMNSLKPEDTGVDDFAAVVYVPVYFQHKFDVEYEYWGQGTQVTVSS | low polyreactivity
13 | QVQHVESGGGLVQAGGSLRLSCAASGSIIPSNVMGWYRQTPGKDRELVAAISNTGSTNYADSVKGRFTISRDNAKNSVYLQMNSLKPEDTAVYYCNADASYGFWSLLDYDYWGQGTQVTVSS | low polyreactivity
14 | QVQHVESGGGLVQAGGSLRLSCAASGSILGWYAMGWYRQAPGKERELDAAITTAGDSTYYADSVKGRFTISRDNAKNTVYLPLNSLKPEDTAVYYCATRYQVRRGSGPSYDYWGQGTQVTVSS | high polyreactivity
15 | QVQHVESGGGLVQAGGSLRLSCAASGSILRSYAMGWFRQAPGKERELVAVINGSGGRTYYADSVKGRFTISRDNEKNTVYLQMISLKPEDTAVYYCNADPGGRYPRRGYAHEGDYWGQGTQVTVSS | low polyreactivity
16 | QVQHVESGGGLVQAGGSLRLSCAASGSILYLYAMGWYRQAPGKERELVAAISLGDGSTYYADSVKGRFTISRDNAKNTVYLQMNSLKPEDTAVYYCNADRYTYWQDYNYWGQGTQVTVSS | low polyreactivity

Row | Sequence | polyreactivity (PSR sort gate)
17 | QVQHVESGGGLVQAGGSLRLSCAASGSIYISNAMGWYRQAPGKERELVAAITSSGGSTYDADSVKGRFTISRDNAKNTVSLQMNSLKPEDTAVYYCAARPGRNYYYWGQGTQVTVSS | high polyreactivity
18 | QVQHVESGGGLVQAGGSLRLSCAASGSTFGRNAMGWYRQAPGKERELVAAINWSDGSTHYADSVKGRFTISRDNAKNTVYLQMNSLKPEDTAVYYCGADAWSWPVDYNYWGQGTQVTVSS | low polyreactivity
19 | QVQHVESGGGLVQAGGSLRLSCAASGSTFGWYAMGWYRQAPGKERELVAAITRRGTRTYYADSVKGRFTISRDNAKNTVYLQMNSLKPEDTAVYYCNARGFPGKFGYWGQGTQVTVSS | high polyreactivity
20 | QVQHVESGGGLVQAGGSLRLSCAASGSTFPANAMGRYRQAPVKERELVAVISSGGRTYYADSVKGRFTISRDNAKNTVYLQLNSLKPEDTEVYYCAAGSYAGSGPSPWLEYWGQGTQVTVSS | high polyreactivity
21 | QVQHVESGGGLVQAGGSLRLSCAASGSTFRPYAMGWYRQAPGKERELVARITVSGDSTYYADSVKGRFTISRDNAKNTVYLQMNSLKPEDTAVYYCAREFDYSLSGFDYWGQGTQVTVSS | low polyreactivity
22 | QVQHVESGGGLVQAGGSLRLSCAASGSTFTAYAMGWYRQAPGKVSELVAVITSGGGTYYADSVKVRFTISRDNANNTDYLQMNSLKPEDTAVYYCHSARTYAGTYIYRYGYWGQGTQVTVSS | high polyreactivity
23 | QVQHVESGGGLVQAGGSLRLSCAASGSTFTYNAMGWYRQAPGKEREKVASISSGTTTYYADSVKGRFTISRDNAKNTVYLQMNSLKPEDTAVYYCAVDSWSRVQGWLAHNYDYWGQGTLVTVSS | low polyreactivity
24 | QVQHVESGGGLVQAGGSLRLSCAASGSTFVQYAMGWYRQAPGKERELVAAIRGRGDSTYYADSVKGRFTISRDNAKNTVYLQMNSLKPEDTAVYYCAARGQGSRGMYYWGQGTQVTVSS | low polyreactivity
25 | QVQHVESGGGLVQAGGSLRLSCAASGSYLRYYAMGWYRQAPGKERELVAAISRSGTNTYYADSVKGRFTFSPDNAKNSVYLQMNSVKPEVTAVYYCAARGYYRDYDSWGQGTQVTVSS | high polyreactivity
26 | QVQHVESGGGLVQAGGSLRLSCAASGYIFPGSAMGWYRPAPGKERELVAAISTSGGYTYYADSVKGRFTISRDNAKNTVYFQMNSLNPEVTAVYYCAADRYSTDPYAKGTEFYYWGQGTQVTVSS | low polyreactivity
27 | QVQHVESGGGLVQAGGSLRLSCAASGYIFVRNAMGWYRQAPGKERELVAAISGSGGSTYYADSVKGRFTISRDNAKNTVYLQMNSLKPEDTAVYYCAADYATVTWRGIAYDYWGQGTQVTVSS | low polyreactivity
28 | QVQHVESGGGLVQAGGSLRLSCAASVSIFEYYAMGWDRRAHGKERELVARITDSGGSTYADSVKGRFTISRDNAKNTVYLQMSSLKPEDTAVYYCAADDNYFDFDYWGQGTQVTVSS | low polyreactivity
29 | QVQHVESGGGLVQAGGSLRLSCAASVSIFYDYAMGWYRQAPGKERELVAAINKSGGSTYYADSVKGRFTISRDNAKNTVYLQMNSLKPEDTAVYYCIARKRLGPVRYGYWGQGTQVTVST | high polyreactivity
30 | QVQHVESGGGLVQAGGSLRLSCAASVSIFYGYAMGWSRQAPGKERELVATIRFITGSTYYADSVKGRFTISRDNAKNTVYLQMNSRKPEDTAVYYCAAVYVGYYDNYDYWGQGTQVTVSS | low polyreactivity
31 | QVQHVESGGGLVQAGGSLRLSCAAYGRTFGYYAMGWNRQAPGKDRELVAAITSGGRTNYADSVKGRFTISRDNAKNTVYLQMISQKPEDTAVYYCAATWNWPLSERKFNYWGQGTQVTVSS | low polyreactivity
